These are literature values, as cited in paper PMC8834348.

Data set [1] deals with flotillin 1 (Homo sapiens) (UniProt O75955).
Data set [2] deals with flotillin 2 (Homo sapiens) (UniProt Q14254).
UniProt Q14254, sequence (Q14254 2-428): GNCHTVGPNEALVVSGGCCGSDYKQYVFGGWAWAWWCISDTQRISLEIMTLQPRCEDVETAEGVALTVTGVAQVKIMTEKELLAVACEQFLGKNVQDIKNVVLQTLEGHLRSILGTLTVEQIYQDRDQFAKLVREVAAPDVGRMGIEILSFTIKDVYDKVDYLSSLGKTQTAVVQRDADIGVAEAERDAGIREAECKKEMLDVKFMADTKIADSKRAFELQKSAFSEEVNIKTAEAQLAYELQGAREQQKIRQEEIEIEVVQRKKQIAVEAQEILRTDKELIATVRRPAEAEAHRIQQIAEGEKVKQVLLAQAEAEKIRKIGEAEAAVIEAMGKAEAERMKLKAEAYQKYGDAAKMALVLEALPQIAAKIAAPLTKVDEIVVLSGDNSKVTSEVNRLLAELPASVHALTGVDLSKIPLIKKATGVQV

UniProt O75955, sequence (O75955 whole entry): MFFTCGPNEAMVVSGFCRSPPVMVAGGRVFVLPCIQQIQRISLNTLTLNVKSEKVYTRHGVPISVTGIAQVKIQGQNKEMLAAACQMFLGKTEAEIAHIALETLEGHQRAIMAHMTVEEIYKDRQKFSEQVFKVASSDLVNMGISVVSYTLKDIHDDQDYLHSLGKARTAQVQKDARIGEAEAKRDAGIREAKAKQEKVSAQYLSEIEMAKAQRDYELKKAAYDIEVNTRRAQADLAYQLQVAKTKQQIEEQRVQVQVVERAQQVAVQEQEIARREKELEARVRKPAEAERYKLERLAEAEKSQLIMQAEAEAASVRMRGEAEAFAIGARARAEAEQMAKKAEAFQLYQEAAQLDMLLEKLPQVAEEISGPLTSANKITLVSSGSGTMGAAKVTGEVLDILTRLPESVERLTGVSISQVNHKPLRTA

The term Kd denotes the free concentration of one partner at which half of the binding sites on the other are occupied at equilibrium, for simple one-to-one binding. Consider MPP1 D5 domain (from UniProt Q00013), for which the Kd in data set [1] and in data set [2] was 30 nM in each case.
